Assay results: the RNAGym collection of RNA variant scans (doi:10.1073/pnas.2313332121)

B1: TPR t1 (parent)
chain: GACCAAUCUGCCCUCAGAGCUCGAGAACAUCUUCGGAUGCAGAGGAGGCAGGCUUCGGUGGCGCGAUAGCGCCAACGUCCUCAACCUCCAAUGCAUCCCACCACAUGAUGAUGCCUGAAGAGCCUUGGUUUUUUG

Variants of: B1
Experiment: polymerase ribozyme fitness, log enrichment relative to wild type (log ratio); higher = more active; in vitro selection for triplet polymerase activity
Procedure, shortened: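 Mutant libraries of both subunits of a heterodimeric triplet polymerase ribozyme were PCR-built, transcribed, and selected once in triplicate, with frozen incubation at −7 °C and capture of gel-excised extended constructs on streptavidin beads before RT-PCR. Illumina sequencing of input and output libraries was filtered to genotypes with ≥10 input reads and ≥1 read per output. Fitness is the logarithm of genotype enrichment over wild-type enrichment, using inverse-variance-weighted replicate averages. The logarithm is base 2.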

Row | Variant | polymerase ribozyme fitness (log ratio)
1 | A43C G58A U78A C114A | -5.29
2 | A43U A111C | -1.94
3 | A43G C53G G69C | -2.9
4 | A43G G63C C82G | -4.47
5 | G42U C82G C115G | -3.58
6 | A43U G71C | -2.56
7 | A43C C72A G122A | -3.17
8 | A43C C53A C56A C72A | -2.36
9 | A43C C72U A103U U125A | -6.47
10 | A43C G44U A111G | -1.62
11 | A43G G128U | -4.43
12 | A43G G128A | -3.36
13 | A43G G63U C115U | -4.05
14 | A43U U112G G127U | -2.19
15 | A43C G61U C82U C104G C123A | -7.32
16 | A43U G48A A100C A111G | -5.16
17 | A43U A66G | -3.64
18 | A43G A50G G60A | -4.16
19 | A43C C76U A91C G93C U112C G113U U116C | -6.51
20 | A43U C73A C104A G113U | -5.13
21 | G42U G63A A111G U112G C115A | -6
22 | G42U C89U | -0.954
23 | G42U G45A | -1.25
24 | A43U A46U G47U G117U | -7.8

Row | Variant | polymerase ribozyme fitness (log ratio)
25 | A43U G44C | -1.05
26 | A43G G45U C72G | -2.45
27 | A43U C85G A95C U112C | -2.22
28 | A43C G61A | -2.52
29 | A43U G47C G113U | -3.6
30 | A43U A83U | -1.8
31 | A43G C53G | -2.54
32 | A43G C56G G69U A108G C124A | -2.3
33 | G44A A75U A118G | -1.19
34 | A43U A91U G110A G120C | -5.56
35 | G42U C76U A84U C88U | -2.62
36 | A43G A50C G57U | -2.8
37 | G42U C73A C114G | -1.95
38 | A43C G48A C88U | -1.82
39 | A43G G69C | -2.38
40 | A43C G63C C102A A121U C123U | -5.76
41 | A43C C56G C62G A68G G120A | -7.42
42 | A43U C88A | -1.18
43 | A43U C88U A95C | -2.51
44 | A43U C76A C85G G120A U130C | -1.34
45 | A43G C124G | 0.268
46 | G42U U54A G110U U133G | -4.37
47 | A43C G77A | -2.79
48 | A43C G77C | -2.27

Row | Variant | polymerase ribozyme fitness (log ratio)
49 | A43C G44C A118U U133G | -1.11
50 | G42U G128A | -3.14
51 | A43U C123A | -1.02
52 | G42U C73G | -2.39
53 | A43U U78G C85U G93A | -3.01
54 | A43U C102U | -3.44
55 | A43U G60U C123G U132G | 0.532
56 | A43C G45U C73A A91U G93A U112A G128C | -5.37
57 | A43C C53A A95U U109A U130G | -7.32
58 | A43U A50U U81A A91G U92G | -3.02
59 | A43U U112G | -1.93
60 | A43U U112A | -0.216
61 | A43C U59G U78C A111U | -5.7
62 | A43U G69A | -5.69
63 | A43U G58U C62U A74C | -2.24
64 | A43G U59A C99U | -6.09
65 | A43G A50G C101G C124A U129A | -3.82
66 | A43U G48A | -1.56
67 | G42U C72A U96C | -1.5
68 | A43C C53U G110C | -7.24
69 | A43U A90C G110A A111G U132A | -0.915
70 | A43G A46U U112G | -3.43
71 | A43G A121G U129A | -0.572
72 | A43C G47A | -4.53

Row | Variant | polymerase ribozyme fitness (log ratio)
73 | A43C C88U G93A | -1.96
74 | A43U A46G C53G U87C C115U | -2.37
75 | A43U A46U | -2.27
76 | A43C G117C | -4.86
77 | A43C G69A C94G | -7.62
78 | A43U U54A U112A | -0.639
79 | A43G G60A G107C C114U G120U U133G | -3.85
80 | A43C C53G G61U G128A | -4.58
81 | A43U G45U G110U | -3.95
82 | G44A A50U G60A U132C | -2.42
83 | A43U G61A U92A G93C | -1.44
84 | G42U G110A | -2.74
85 | G42U G44U G45A U54G C89G | -2.57
86 | A43G C72U | -0.99
87 | A43G C72G | -1.52
88 | A43U U78C | -1.53
89 | G42U U81C C85G U126G | -6.41
90 | A43U U129A | -2.81
91 | G42U G45U C88G G110A | -3.96
92 | A43U U59G G110A | -5.07
93 | A43G G113A | -2.18
94 | A43C G93C U130A | -3.38
95 | G42U C56U C115G | -2.13
96 | A43C C53G C70U A95C | -5.1

Row | Variant | polymerase ribozyme fitness (log ratio)
97 | A43C G60U U133G | -2
98 | A43C U129A | -3.98
99 | A43U A46U G58C G60A | -2.67
100 | A43C C70G A111U | -5.68
101 | A43U U59C | -1.99
102 | A43U U55A C70G U112A G113A | -3.91
103 | G42U C56U G127U | -2.75
104 | A43U G63A A95G G120U G128U | -4.88
105 | G42U C94U G113A | -2.64
106 | A43G U112A | -0.27
107 | A43U C115A C124U | -0.864
108 | A43U C72A | -1.26
109 | A43U G52C C72U | -2.16
110 | A43G G71A A100U | -6.07
111 | G42U C56G C73A | -4.4
112 | A43U C85A | -2.96
113 | G42U G77C C80U A84U C97U | -3.47
114 | A43G C53A U78C C88U | -1.22
115 | A43C C49A G52A C73U U81C A95C C123A | -6.02
116 | A43U C76A G135U | -3.89
117 | A43U G120C U132A | 0.0679
118 | A43U C88A U109A | -6.37
119 | A43G G60A | -2.12
120 | A43G A50G G63C | -3.02

Row | Variant | polymerase ribozyme fitness (log ratio)
121 | A43C G120U | -2.7
122 | A43C A46C G60A U87A C101U | -2.45
123 | G42U G52A C101U | -1.81
124 | A43U G44C G45A A83C G110A | -6.81
125 | A43U C73U U92G G113A | -2.84
126 | A43C U54C G58A C86A | -3.78
127 | G42U C72G G117U | -4.8
128 | A43G U133G | -1.7
129 | A43C G61U C64G A121G | -6.23
130 | G42U G71C A111C U130C | -3.75
131 | A43U C79U | -0.702
132 | A43G A74U | -2.25
133 | A43G A74C | -2.19
134 | A43G C53A U109A A119G | -5.89
135 | A43U C73U C123G G127C | -1.76
136 | A43C C49U C70A C102U G110A G128C U131G | -6.44
137 | G42U G58C C82G U87C | -2.71
138 | A43U G45U | -1.71
139 | A43G C56A G57U U59C A84C C86U | -3.81
140 | A43C C62U C72G | -4.05
141 | A43U G45A G58C | -1.24
142 | A43U U87A G117A | -3.08
143 | G42U G71U C101U | -1.49
144 | G42U C72A | -0.339

Row | Variant | polymerase ribozyme fitness (log ratio)
145 | G42U C72G | -2.53
146 | A43U C73G C85U C98G C115U | -7.11
147 | A43C A46C U96A U106A U116G C123A | -7.89
148 | G42U G71U G127U | -2.72
149 | G42U C88U G113U A121U U131G | -1.8
150 | A43U A46U C56A | -2.93
151 | G42U C56G | -1.08
152 | G42U C56U | -1.29
153 | G42U U54G A68G | -5.22
154 | G42U G63A C82U | -2.86
155 | A43G G71A C82A G120U A121C | -3.35
156 | A43U G48U A50U C62U C88G C101G U112A | -5.19
157 | A43C G63A U78C C88A A91G C94U U130C | -4.78
158 | A43G G63C U96C | -2.76
159 | A43C G60U U78C C104A G120C | -5.55
160 | G42U G113U | -3.06
161 | G42U G113C | -3.23
162 | A43G G58A C85U U112C | -1.68
163 | A43U C53A U129A | -4.05
164 | A43C A68G U109A G117U | -6.95
165 | A43U U87G C102U | -5.04
166 | A43U G48C G57A C89U U106C | -2.94
167 | G42U C73A U125A | -1.74
